Results taken from patent publication US20260274896A1 (ICHIMARU PHARCOS, published 2026).
*1 amine or outer side, *2 acyl side, *3 side chain or, on linkers, in order; H or OH if unused. Bridges are numbered along the chain shown (N, C = ends). [ ]: non-standard residue; d: D form. TBMB = c1c(C[*:1])cc(C[*:3])cc1C[*:2]; NMeY = CN[C@@H](Cc1ccc(O)cc1)C(=O)O; pXylylene = c1cc(C[*:2])ccc1C[*:1]; Dap = NC[C@H](N)C(=O)O; Mpa = O=C(O)CCS; Sar = CNCC(=O)O

T1: Vasoactive intestinal peptide receptor 2 (VIPR2), human, on the human VIPR2-expressing cell line (Catalog No. … (human, UniProt P41587 24-438))
T1 construct: whole, on cells; also called VPAC2; VIPR2-expressing cells
T1 sequence (looked up): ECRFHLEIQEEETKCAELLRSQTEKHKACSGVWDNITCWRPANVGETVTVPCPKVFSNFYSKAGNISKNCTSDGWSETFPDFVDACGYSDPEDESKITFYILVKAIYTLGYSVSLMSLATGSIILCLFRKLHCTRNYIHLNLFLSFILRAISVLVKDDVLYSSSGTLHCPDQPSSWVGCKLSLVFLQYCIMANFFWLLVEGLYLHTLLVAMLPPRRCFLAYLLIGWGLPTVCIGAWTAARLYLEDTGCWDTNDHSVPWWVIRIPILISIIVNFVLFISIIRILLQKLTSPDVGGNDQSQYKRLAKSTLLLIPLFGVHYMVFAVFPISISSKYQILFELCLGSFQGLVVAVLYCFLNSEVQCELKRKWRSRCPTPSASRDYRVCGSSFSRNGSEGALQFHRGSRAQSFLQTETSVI


target: T1, Vasoactive intestinal peptide receptor …; assay: competitive cell-based ELISA on human VIPR2-expressing cells; competitor Biotin-VIpep-3 (1000 nM)
Protocol: (§1) To confirm the binding activity of the amino acid substituted peptides to VIPR2, a competitive binding assay was constructed using the cell-based ELISA method shown in FIG. 3. The following is a brief description of this cell-based ELISA method. Human VIPR2-expressing cell line (Catalog No. HTS079RTA, manufactured by EUROFINS) was spread in a 96-well plate using the culture medium provided by the manufacturer, and cultured overnight at 37° C. in a CO₂ incubator. After washing the plates with HBSS containing 0.1% BSA, the mixtures containing Biotin-VIpep-3 (1000 nM) and any concentration of amino acid substituted peptide or VIpep-3 were prepared and added at 50 μL/well. After reaction on ice for 60 minutes, the plate was washed with 0.1% BSA containing HBSS. Biotin-VIpep-3 bound to VIPR2-expressing cells adhering to the plate was detected with SA-HRP (catalog no. ab7403, Abcam). For HRP quantification, SuperSignal ELISA Pico Chemiluminescent Substrate (Catalog No. 37070, ThermoFisher) was used to measure chemiluminescence values. […] In other words, the binding activity of amino acid substituted peptides and VIpep-3 to VIPR2 is detected as a competitive inhibitory activity against Biotin-VIpep-3 binding. […] Then, using the 50% inhibitory activity value of VIpep-3 as 1, the relative inhibitory activity values of the amino acid-substituted peptides were calculated.

| binding result | Binder |
| --- | --- |
| binds | Ac-CPPYLPRRLCTLLLRS-OH (disulfide 1-10; SMILES CC(=O)N[C@H]1CSSC[C@@H](C(=O)N[C@H](C(=O)N[C@@H](CC(C)C)C(=O)N[C@@H](CC(C)C)C(=O)N[C@@H](CC(C)C)C(=O)N[C@@H](CCCNC(=N)N)C(=O)N[C@@H](CO)C(=O)O)[C@@H](C)O)NC(=O)[C@H](CC(C)C)NC(=O)[C@H](CCCNC(=N)N)NC(=O)[C@H](CCCNC(=N)N)NC(=O)[C@@H]2CCCN2C(=O)[C@H](CC(C)C)NC(=O)[C@H](Cc2ccc(O)cc2)NC(=O)[C@@H]2CCCN2C(=O)[C@@H]2CCCN2C1=O, also called Vlpep-3) [VIpep-3] |

target: T1, Vasoactive intestinal peptide receptor …; assay: competitive cell-based ELISA on human VIPR2-expressing cells; competitor Biotin-VIpep-3 (1000 nM), N=4
Protocol: as §1

| binding result | Binder |
| --- | --- |
| binds | [Mpa][NMeY]L[Sar]CYLC[Dap]LI-NH2 (linker 1-5-8 via TBMB; SMILES CC[C@H](C)[C@H](NC(=O)[C@H](CC(C)C)NC(=O)[C@H](CN)NC(=O)[C@@H]1CSCc2cc3cc(c2)CSC[C@H](NC(=O)CN(C)C(=O)[C@H](CC(C)C)NC(=O)[C@H](Cc2ccc(O)cc2)N(C)C(=O)CCSC3)C(=O)N[C@@H](Cc2ccc(O)cc2)C(=O)N[C@@H](CC(C)C)C(=O)N1)C(N)=O, Synthetic bicyclic peptide) [Seq-9] |
| binds | [Mpa][NMeY]L[Sar]CYLCSLI-NH2 (linker 1-5-8 via TBMB; SMILES CC[C@H](C)[C@H](NC(=O)[C@H](CC(C)C)NC(=O)[C@H](CO)NC(=O)[C@@H]1CSCc2cc3cc(c2)CSC[C@H](NC(=O)CN(C)C(=O)[C@H](CC(C)C)NC(=O)[C@H](Cc2ccc(O)cc2)N(C)C(=O)CCSC3)C(=O)N[C@@H](Cc2ccc(O)cc2)C(=O)N[C@@H](CC(C)C)C(=O)N1)C(N)=O, Synthetic bicyclic peptide) [Seq-8] |

target: T1, Vasoactive intestinal peptide receptor …; assay: summary of the Examples (binding to VIPR2-expressing cells)

| binding result | Binder |
| --- | --- |
| binds | [Mpa]PPYLPKYLCDLI-NH2 (disulfide 1-10; lactam 7-11; SMILES CC[C@H](C)[C@H](NC(=O)[C@H](CC(C)C)NC(=O)[C@@H]1CC(=O)NCCCC[C@@H]2NC(=O)[C@@H]3CCCN3C(=O)[C@H](CC(C)C)NC(=O)[C@H](Cc3ccc(O)cc3)NC(=O)[C@@H]3CCCN3C(=O)[C@@H]3CCCN3C(=O)CCSSC[C@H](NC(=O)[C@H](CC(C)C)NC(=O)[C@H](Cc3ccc(O)cc3)NC2=O)C(=O)N1)C(N)=O, Synthetic bicyclic peptide derived from VIpep-3) [Seq-1] |
| binds | XYLPKYLCDLI (Mpa at position 1; NmeTyr at position 2; thioether bridge via DIHex (1,6-diiodohexane) linker (1-8); side-chain amide(5-9) between Lys5 and Asp9; C-terminal amide (NH2), Synthetic bicyclic peptide) [Seq-4] |
| binds | [Mpa][NMeY]LPKYLCDLI-NH2 (linker 1-8 via pXylylene; lactam 5-9; SMILES CC[C@H](C)[C@H](NC(=O)[C@H](CC(C)C)NC(=O)[C@@H]1CC(=O)NCCCC[C@@H]2NC(=O)[C@@H]3CCCN3C(=O)[C@H](CC(C)C)NC(=O)[C@H](Cc3ccc(O)cc3)N(C)C(=O)CCSCc3ccc(cc3)CSC[C@H](NC(=O)[C@H](CC(C)C)NC(=O)[C@H](Cc3ccc(O)cc3)NC2=O)C(=O)N1)C(N)=O, Synthetic bicyclic peptide) [Seq-7] |
| binds | XYLPKYLCDLI (Mpa at position 1; NmeTyr at position 2; thioether bridge via DIPen (1,5-diiodopentane) linker (1-8); side-chain amide(5-9) between Lys5 and Asp9; C-terminal amide (NH2), Synthetic bicyclic peptide) [Seq-3] |
| binds | XYLPKYLCDLI (Mpa at position 1; NmeTyr at position 2; thioether bridge via DBmXy (1,3-bis(bromomethyl)benzene) linker (1-8); side-chain amide(5-9) between Lys5 and Asp9; C-terminal amide (NH2), Synthetic bicyclic peptide) [Seq-6] |
| binds | XYLPKYLCDLI (Mpa at position 1; NmeTyr at position 2; thioether bridge via DBoXy (1,2-bis(bromomethyl)benzene) linker (1-8); side-chain amide(5-9) between Lys5 and Asp9; C-terminal amide (NH2), Synthetic bicyclic peptide) [Seq-5] |
| binds | XYLPKYLCDLI (Mpa at position 1; NmeTyr (N-methyl-Tyr) at position 2; thioether bridge via DIBut (1,4-diiodobutane) linker (1-8); side-chain amide(5-9) between Lys5 and Asp9; C-terminal amide (NH2), Synthetic bicyclic peptide) [Seq-2] |
| binds | Ac-CPPYLPKYLCDLI-NH2 (disulfide 1-10; lactam 7-11; SMILES CC[C@H](C)[C@H](NC(=O)[C@H](CC(C)C)NC(=O)[C@@H]1CC(=O)NCCCC[C@@H]2NC(=O)[C@@H]3CCCN3C(=O)[C@H](CC(C)C)NC(=O)[C@H](Cc3ccc(O)cc3)NC(=O)[C@@H]3CCCN3C(=O)[C@@H]3CCCN3C(=O)[C@@H](NC(C)=O)CSSC[C@H](NC(=O)[C@H](CC(C)C)NC(=O)[C@H](Cc3ccc(O)cc3)NC2=O)C(=O)N1)C(N)=O, Synthetic bicyclic peptide) [Seq-10] |
